Source: the supplement of paper PMC12636428

Tested on: Saccharomyces cerevisiae
Test: transcriptional activation domain activity (GFP:mCherry ratio, weighted mean of sorted bins, harmonized to initial dataset scale) (arbitrary fluorescence ratio units); higher = stronger transcriptional activation
Details: beta-estradiol 1 µM; induction time 4 h
Method in brief: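 The activation activity of each tile is the read-weighted mean of bin median fluorescence, averaged across its barcodes and mapped linearly onto the scale of the initial dataset. Tiles were fused to an estradiol-inducible synthetic transcription factor, barcoded, and integrated at URA3 in yeast diploids carrying a GFP reporter. Induction used 1 uM beta-estradiol in SC for 4 hours at 30 °C, after which cells were sorted into 8 GFP:mCherry bins, and any tile with fewer than 50 reads was dropped.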

Sequence	transcriptional activation domain activity
SRGICVYPFLPFAFFLGVFFSLMEFVLLGMMMVLYLYMRTVTCMFDISICLLL	48500
SRHGREASEERARRKRRERQRDNDGGNRSRRKHTSPSSDDADRLTRKRKSRHE	11000
SRIRAKRIYTKLNLFFRSAFLSYTDFKQTIIVLVSLLKLSLNLWDIVKLMCPQ	47400
SRITSIGVWYLLIQMIWYILFGILYIWFFCQTWESFTVLLVVDYSLRIILCLM	58100
SRKESRKEKSESKPVKAGKKEGKEKGKGKEGKEGKADGEKAAKPKKEKKEKKE	17700
SRKGESGREDSGGRDKESRKRSRRDKTPVADERRRDGTRAAEERDRKRRGDHR	49100
SRLCLVSVGECLLLLSLVWGLLLLISLYLVLFFLHCVCMSGLFLCDLFELFVT	64800
SRLDAIEEEEEDLAAKNEGSTSNIEVDEIDIKSRDLKVGDIVKLGKNQRVPAD	39600
SRLFDLQLNICLSFQVYWFRNLVDGFPLDIPPLHIASFFGLVEPLTALLKSLG	33100
SRLHARIEYEESSEQFVLAVLGRNGAWVDGVWSGSGSRVPLSSRSQIQIASRV	52800
SRLLHLLLVTLGLLVVLLYSFFPSPDVFVLSPLRSPLFLLFSPSFFFCLFCLF	75400
SRLRKTGTPTSSQHSSTAFSGYIDDPFNLNEILPLPASDFKLNTVTNLNEIDF	106000
SRLTHVLLCYRQSLLVTVYSHLLLLDQSSQVWWRWMSIFFTLIMWSIELLISS	57600
SRPPRPSASSSTTPRARSRSTARPSRARWPRPRCPSSGGCTRACRTRRCTRRM	45300
SRPSTAPKPAPNPSPETTVTSISTPSEKRKRGRKPKAKPVEVPVSQTSGADSL	20600
SRRAHSSDRDEARSARRRGRDRSRSRNRSRSWSRHRHRHRSHSRDAPAAAAAR	22600
SRREDGVKVEDADDGGVSLEKGVEDLNIDNNNGKKEKGGVFVHCAAGKSRSVS	43100
SRRPAKKVKEEGEKKAASGDKKGRGKALSEKSKPDAKGSKAKSKHKKDSDSEE	24900
SRSGGGNGKPAGSGKNGSSQLKEVASRSRRRGDSDDDDRKGGSTRSGGGSRKV	34000
SRSRKGRGRRRRGSKASRGSRSSRGSAASSANTSDSSSSSSSSDSDDSSSSSS	18200
SRSRSRDRHRRSSRRHRRRSPSASRSRSASRSRRRRHSKRRSREKRHSSRRHR	30200

Sequence	transcriptional activation domain activity
SRSRSRRRKSSRRRRRDRSEDAESDDHRARRRHKSRKHSSRAGDDEDGKGRSR	26100
SRTTSLGVWFLVIQMIWYGLFGALYIWFFCQDWYLFDVHLVFDYLMRFILCLM	40700
SRVMRHFSAVEAGCFLWIWILVRIEGGMLLVNLYLDTTRITSTILNLYTACTG	78500
SRVSLTVFRFSYVWLSLIFAIPLLCAVLIELYFLMPLHAWMGPSEPHVVHLIQ	46800
SRVVYRDGRRHHYCVTSFDVLSSGILYIICGALDNIWLVTIERVVLSIMACRV	81500
SRWFLVLFLLPYPRASPFFLVLYLFSLILHSRPCLYCIVLLTVLFTSSCYWAP	53600
SSAAAGSSGNASRAAMDVDGEVDADADENRRRSTRASAGRKKAGSAVKKAGTG	< 6570
SSAASAGGEGEGKDGKRKKDGQEEEEEEDKGSKKVKKNDGGAKQTKEGAKTSD	< 6570
SSACASRSSPSSSCGSPSTSCAGAAARASPPRRCSARPCPRRRRAASPTASTS	10100
SSAKDIEGDGDGADVIRNNRLAKRSTAGVKVKKHVAQIIKMRKVTPRSIAYIA	40000
SSATASAADAATTDAASGSLEARKKKDDKKKGDKKKGKKGDKKGGKKAASTTA	12500
SSATDSNPNTNLEDSLFFDHDLLSSSITNTNNGQGSNNGRQASKDDTLNLLDT	37900
SSCAPIPMVDFDINESNMVMGNYFDDFASFMDNVPIPNSVFSPSYQPLFAFLP	114000
SSDEEEEPRPKGKGKGKAAVVKAKPKPVAEKGNNAGGKRKRDADSEADGGAAK	44000
SSDYSIAQFRFLLKLLLVHGRWNYVRICKYILGTFYKEFMFYLTQLIYQRNTM	39600
SSEEEDEEDEEEEEEEEEEEAPPKKRAKTKGTVLYCYIFSPFFVPATVNPAID	56700
SSEESSSEDDDGDVKMADAKPAANGIYIYLSSINRLINPLQFQVSVKPTRMSL	47200
SSEGGEENKAEEAELEKADKPKEETTEEKKSEEEKPEEKKPEEKKPEETKAEN	18500
SSEYEIGRPSEEEVTMTRMLDKVLRRSDAVDKESLCILAGQRVWHLRLTLHCL	45500
SSFFFFSFFPGPFLLLYLWICLYPFFLFLGHPFSLGFFLLNYLLFSTATLVAG	36200
SSFVLCLLQCLDVPSLVELTVRRVNSRLRLLLSCKVLLAGLVRLAIHGDIEMA	52200
